Target: T1, protocadherin-42 (human, UniProt Q08174 58-1060)
T1 construct: Full length human cDNA expressed in mouse L cells (pRC/RSV-pc42); tested on the transfected cells or in their extracts; also called pc42; human pc42
T1 sequence: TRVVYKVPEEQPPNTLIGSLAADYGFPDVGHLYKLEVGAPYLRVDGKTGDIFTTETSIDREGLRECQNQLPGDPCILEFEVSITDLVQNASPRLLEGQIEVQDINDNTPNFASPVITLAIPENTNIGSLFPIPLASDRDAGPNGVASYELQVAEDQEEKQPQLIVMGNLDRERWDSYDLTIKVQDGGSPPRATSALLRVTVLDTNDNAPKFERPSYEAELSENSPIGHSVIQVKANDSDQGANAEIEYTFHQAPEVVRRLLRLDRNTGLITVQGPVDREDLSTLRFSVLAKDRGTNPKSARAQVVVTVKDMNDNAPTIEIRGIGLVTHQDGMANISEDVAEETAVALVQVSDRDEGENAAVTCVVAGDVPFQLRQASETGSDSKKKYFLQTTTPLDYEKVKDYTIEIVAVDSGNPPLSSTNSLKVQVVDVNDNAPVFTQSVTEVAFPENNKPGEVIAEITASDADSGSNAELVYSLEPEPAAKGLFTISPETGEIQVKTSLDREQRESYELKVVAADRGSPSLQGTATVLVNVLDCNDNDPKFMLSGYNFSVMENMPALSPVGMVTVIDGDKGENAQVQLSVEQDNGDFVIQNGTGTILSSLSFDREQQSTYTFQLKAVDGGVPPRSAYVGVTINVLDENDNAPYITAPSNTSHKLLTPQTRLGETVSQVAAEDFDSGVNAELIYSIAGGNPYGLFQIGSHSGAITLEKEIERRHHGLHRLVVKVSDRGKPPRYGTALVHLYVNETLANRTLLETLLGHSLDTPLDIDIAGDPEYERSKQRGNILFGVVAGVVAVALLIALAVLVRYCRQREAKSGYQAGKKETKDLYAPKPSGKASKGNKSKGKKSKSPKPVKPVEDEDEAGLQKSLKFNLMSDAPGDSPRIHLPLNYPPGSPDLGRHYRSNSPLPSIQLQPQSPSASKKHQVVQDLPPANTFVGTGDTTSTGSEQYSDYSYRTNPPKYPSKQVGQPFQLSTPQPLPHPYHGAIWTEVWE
Experiment: mixed cell aggregation assay, DiO-labelled pc43 transfectants with unlabelled pc42 transfectants
Procedure: The cell aggregation properties of the transfected L cells expressing protocadherin proteins were examined. Transfected L cells were cultured in Dulbecco's Modified Eagles Medium (DMEM) (Gibco, Grand Island, N.Y.) supplemented with 10% fetal bovine serum at 37° C. in 5% CO₂. Cells grown near confluence were treated with 0.01% trypsin in the presence of 1 mM EGTA for 25 minutes on a rotary shaker at 37° C. and collected by centrifugation. The cells were washed three times with Ca²⁺ free HEPES-buffered saline (HBS) after adding soybean trypsin inhibitor, and were resuspended in HBS containing 1% BSA. The cell aggregation assay [Urushihara et al., Dev. Biol., 70: 206-216 (1979)] was performed by incubating the resuspended cells in a 1:1 mixture of DMEM and HBS containing 1% BSA, 2 mM CaCl₂ and 20 μg/ml of deoxyribonucelease on a rotary shaker at 37° C. for 30 minutes to 6 hours.
This is in contrast to the cell aggregation that occurs with classic cadherins in similar experiments (Nagafuchi et al., supra, and Hatta et al., supra). […] Similar results were obtained when single cell suspensions of transfected cells were prepared by trypsin treatment in the presence of Ca²⁺. No re-aggregation was observed under the same conditions when untransfected L cells or L cells transfected with pRC/RSV vector alone were tested.

binding result: no binding
B1: protocadherin-43 (receptor)
chain: VIHYEIPEEREKGFAVGNVVANLGLDLGSLSARRFPVVSGASRRFFEVNRETGEMFVNDRLDREELCGTLPSCTVTLELVVENPLELFSVEVVIQDINDNNPAFPTQEMKLEISEAVAPGTRFPLESAHDPDLGSNSLQTYELSRNEYFALRVQTREDSTKYAELVLERALDREREPSLQLVLTALDGGTPALSASLPIHIKVLDANDNAPVFNQSLYRARVPGGCTSGTRVVQVLATDLDEGPNGEIIYSFGSHNRAGVRQLFALDLVTGMLTIKGRLDFEDTKLHEIYIQAKDKGANPEGAHCKVLVEVVDVNDNAPEITVTSVYSPVPEDASGTVIALLSVTDLDAGENGLVTCEVPPGLPFSLTSSLKNYFTLKTSADLDRETVPEYNLSITARDAGTPSLSALTIVRVQVSDINDNPPQSSQSSYDVYIEENNLPGAPILNLSVWDPDAPQNARLSFFLLEQGAETGLVGRYFTINRDNGIVSSLVPLDYEDRREFELTAHISDGGTPVLATNISVNIFVTDRNDNAPQVLYPRPGGSSVEMLPRGTSAGHLVSRVVGWDADAGHNAWLSYSLFGSPNQSLFAIGLHTGQISTARPVQDTDSPRQTLTVLIKDNGEPSLSTTATLTVSVTEDSPEARAEFPSGSAPREQKKNLTFYLLLSLILVSVGFVVTVFGVIIFKVYKWKQSRDLYRAPVSSLYRTPGPSLHADAVRGGLMSPHLYHQVYLTTDSRRSDPLLKKPGAASPLASRQNTLRSCDPVFYRQVLGAESAPPGQQAPPNTDWRFSQAQRPGTSGSQNGDDTGTWPNNQFDTEMLQAMILASASEAADGSSTLGGGAGTMGLSARYGPQFTLQHVPDYRQNVYIPGSNAH
notes: Full length human cDNA expressed in mouse L cells (pRC/RSV-pc43); tested on the transfected cells or in their extracts; also endogenous pc43 in human tissue sections; also called pc43; human pc43

Source: patent publication US20060024291A1 (DOHENY EYE INSTITUTE, published 2006)
